Experimental data published in patent publication US20180265552A1 (INSTITUT NATIONAL DE LA RECHERCHE AGRONOMIQUE, published 2018).

Target: TRCP VLP
Experiment: titration, native agarose gel mobility shift

B1: Nb23 fused to EGFP (VHH)
VHH: QVQLQESGGGSVQVGGSLRVACAASGDTFSGYLAAWFRQAPGKGREGVAAINSKRHTTSYADSVKGRFTISKDNADNIMYLEMNSLKPEDTAIYYCAAADAIGLAEYWSTPTLSAARYKYWGQGTQVTVSS
- molecular ratio between GFLV CP and Nb23:GFP at maximum mobility shift: ~1 Nb23:GFP per CP
